Measured values reported in US20190092839A1 (INSTITUTE FOR BASIC SCIENCE, published 2019).

Molecular target: T1, iRFP-pMagH-C-term VHHActin
T1 construct: not shown: iRFP fluorescent protein of the piRFP construct (Addgene 31857)
Experiment: inferred from relocalisation of fluorescence in HeLa cells after 488 nm light (nMagH with pMagH)

T1 sequence (chain, as listed by the source): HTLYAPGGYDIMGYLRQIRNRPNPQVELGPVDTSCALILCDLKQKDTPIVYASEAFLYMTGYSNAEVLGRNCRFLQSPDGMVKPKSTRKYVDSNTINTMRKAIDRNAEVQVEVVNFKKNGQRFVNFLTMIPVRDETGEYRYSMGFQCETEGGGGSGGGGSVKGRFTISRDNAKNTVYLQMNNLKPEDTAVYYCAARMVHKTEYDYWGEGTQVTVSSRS

B1: N-term VHHActin-nMagH-mCherry (other)
chain: MAQVQLVESGGGLTQAGGSLRLSCATSGLIFSAFGMGWFRQAPGKEREFVGGINWRGSTNYGDFGGGGSGGGGSHTLYAPGGYDIMGYLDQIGNRPNPQVELGPVDTSCALILCDLKQKDTPIVYASEAFLYMTGYSNAEVLGRNCRFLQSPDGMVKPKSTRKYVDSNTINTIRKAIDRNAEVQVEVVNFKKNGQRFVNFLTIIPVRDETGEYRYSMGFQCETE
notes: not shown: mCherry red fluorescent protein of the pmCherry construct (engineered)
binding result: binds
